Laboratory results reported in publication PMC4006364 (Nature chemical biology, 2014).
Where a chain is given by its changes, count along the chain named. Like-named read-outs stand apart in the source and are kept apart here.

What was measured:
AfXPB [1] = molecular target: T1, AfXPB (Archaeoglobus fulgidus, UniProt O29889); assay: gel mobility shift, inhibition of […]-G4 DNA binding
T1 sequence (O29889 1-452): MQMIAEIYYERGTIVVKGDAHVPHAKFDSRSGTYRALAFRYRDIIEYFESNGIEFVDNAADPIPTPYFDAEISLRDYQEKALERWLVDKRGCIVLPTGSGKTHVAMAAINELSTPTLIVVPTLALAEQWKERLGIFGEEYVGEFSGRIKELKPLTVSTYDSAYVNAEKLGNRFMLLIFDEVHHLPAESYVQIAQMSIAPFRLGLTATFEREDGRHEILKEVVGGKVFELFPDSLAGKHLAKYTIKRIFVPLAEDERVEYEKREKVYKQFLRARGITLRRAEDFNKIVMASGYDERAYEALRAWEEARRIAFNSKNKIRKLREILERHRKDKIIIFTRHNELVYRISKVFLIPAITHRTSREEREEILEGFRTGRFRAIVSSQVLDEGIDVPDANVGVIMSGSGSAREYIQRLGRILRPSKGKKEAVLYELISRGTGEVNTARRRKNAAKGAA

AfXPB [2] = molecular target: T1, AfXPB; assay: as above; settings: no Mg2+, pH 7.9, 50 °C; inhibits G4 DNA binding
SaXPD = SaXPD (Sulfolobus acidocaldarius, UniProt Q4JC68); settings: 1 mM Mg-ATP, pH 6.5, 45 °C
XPB (AfXPB) WT [3] = molecular target: T2, XPB (AfXPB) WT (Archaeoglobus fulgidus, UniProt O29889 1-452); assay: EMSA
T2 sequence: T1 sequence (O29889 1-452)

XPD (SaXPD) = molecular target: T3, XPD (SaXPD) (Sulfolobus acidocaldarius, UniProt Q4JC68 1-551); assay: EMSA
T3 sequence: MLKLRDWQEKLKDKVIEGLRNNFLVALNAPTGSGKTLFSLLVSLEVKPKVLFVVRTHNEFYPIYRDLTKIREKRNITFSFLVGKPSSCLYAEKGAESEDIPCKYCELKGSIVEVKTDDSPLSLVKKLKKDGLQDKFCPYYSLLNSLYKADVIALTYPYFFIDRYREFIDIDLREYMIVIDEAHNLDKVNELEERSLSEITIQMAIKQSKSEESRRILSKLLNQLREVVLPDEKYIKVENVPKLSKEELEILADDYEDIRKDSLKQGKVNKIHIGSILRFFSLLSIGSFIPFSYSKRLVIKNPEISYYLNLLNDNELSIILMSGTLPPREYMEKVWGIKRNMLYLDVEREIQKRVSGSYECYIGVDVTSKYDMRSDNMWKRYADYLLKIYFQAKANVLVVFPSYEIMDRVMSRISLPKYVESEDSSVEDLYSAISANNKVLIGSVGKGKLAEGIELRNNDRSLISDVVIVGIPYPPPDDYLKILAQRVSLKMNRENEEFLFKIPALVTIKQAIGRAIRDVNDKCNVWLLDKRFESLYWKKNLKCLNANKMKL

XPB (AfXPB) WT [4] = molecular target: T2, XPB (AfXPB) WT; assay: EMSA; remark: listed apart in the source
AfXPB K101R = molecular target: T4, AfXPB K101R (Archaeoglobus fulgidus, UniProt O29889 1-452, K101R); assay: EMSA
T4 sequence: T1 sequence (O29889 1-452) with K101R

`Nc1ncnc2c1ncn2[C@@H]1O[C@H](COP(=O)(O)OP(=O)(O)O)[C@@H](O)[C@H]1O` [ADP] gave a Ki (AfXPB [1]) of about 4 mM.

For `Nc1ncnc2c1ncn2[C@@H]1O[C@H](COP(=O)(O)OP(=O)(O)OP(O)(O)=S)[C@@H](O)[C@H]1O` [ATP-γS], the “inhibition of G4 DNA binding” value (AfXPB [2]) was “ATP-γS similarly inhibited G4 DNA binding, so inhibition did not depend upon ATP hydrolysis”.

`Nc1ncnc2c1ncn2[C@@H]1O[C@H](COP(=O)(O)OP(=O)(O)OP(=O)(O)O)[C@@H](O)[C@H]1O` [ATP] was tested, and the “32P-G4 DNA unwinding assay, native gel” value (SaXPD) was “robust G4 DNA unwinding activity in the presence of ATP but not ATP-γS”.

AGAATGGAGCAGGTGCGCTGCGAGCAGTG (ssDNA) [ssDNA]: no binding (XPB (AfXPB) WT [3]).

TGGACCAGACCTAGCAGCTATGGGGGAGCTGGGGAAGGTGGGAATGTGA (structured_DNA) [G4 DNA (TP oligonucleotide)]: binds (XPD (SaXPD)); binds (XPB (AfXPB) WT [4]); no binding (AfXPB K101R).

B1: dsDNA (dsDNA)
DNA 1: AGAATGGAGCAGGTGCGCTGCGAGCAGTG
DNA 2: CACTGCTCGCAGCGCACCTGCTCCATTCT
B1: no binding (XPB (AfXPB) WT [3]).
